{
  "source": "patent US20260284221",
  "about": "(published 2026)",
  "binders": {"B1": {"name": "L2-conjugated anti-Trop2 antibody (IB12) (antibody, V domains shown)", "VH": "EVQLVESGGGLVQPGGSLRLSCAASGFTFNNYAMSWVRQAPGKGLEWVSTISSDGTYTYYADSVKGRFTISRDNSKNTLYLQMNSLRAEDTAVYYCARHPPSYYYAFDYWGQGTTLTVSS", "VL": "EIVLTQSPGTLSLSPGERATLSCRASESVDSYGNSFIHWYQQKPGQAPRLLIYLASNLESGIPDRFSGSGSGTDFTLTISRLEPEDFAVYYCQQNNEDLWTFGGGTKLEIK", "modifications": "conjugated with L2 linker; heavy constant SEQ2, light constant SEQ4"}},
  "assay_in_all_cases": "BLI pH 7.4",
  "key": {"Rhesus macaque Trop2": {"target": "T1, Rhesus macaque Trop2 (rhesus macaque)", "T1 chain": "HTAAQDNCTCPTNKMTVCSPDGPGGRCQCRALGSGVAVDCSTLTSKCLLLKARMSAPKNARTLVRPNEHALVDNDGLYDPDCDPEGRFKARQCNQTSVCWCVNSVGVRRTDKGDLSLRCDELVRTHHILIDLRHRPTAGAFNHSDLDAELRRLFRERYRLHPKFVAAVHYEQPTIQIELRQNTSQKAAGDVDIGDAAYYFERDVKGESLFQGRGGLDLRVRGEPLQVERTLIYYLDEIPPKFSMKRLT"}, "Human Trop2": {"target": "T2, Human Trop2 (human, UniProt P09758)", "T2 chain": "T1 chain with V36M, N67S, V204I"}, "Mouse Trop2": {"target": "T3, Mouse Trop2 (mouse, UniProt Q8BGV3)", "T3 chain": "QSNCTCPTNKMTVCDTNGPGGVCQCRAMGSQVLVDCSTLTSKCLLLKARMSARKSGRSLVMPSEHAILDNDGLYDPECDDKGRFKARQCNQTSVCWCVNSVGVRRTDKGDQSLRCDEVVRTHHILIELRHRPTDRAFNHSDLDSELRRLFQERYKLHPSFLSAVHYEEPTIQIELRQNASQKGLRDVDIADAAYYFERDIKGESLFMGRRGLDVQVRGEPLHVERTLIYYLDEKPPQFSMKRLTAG"}, "Rat Trop2": {"target": "T4, Rat Trop2 (rat, UniProt Q6P9Z6)", "T4 chain": "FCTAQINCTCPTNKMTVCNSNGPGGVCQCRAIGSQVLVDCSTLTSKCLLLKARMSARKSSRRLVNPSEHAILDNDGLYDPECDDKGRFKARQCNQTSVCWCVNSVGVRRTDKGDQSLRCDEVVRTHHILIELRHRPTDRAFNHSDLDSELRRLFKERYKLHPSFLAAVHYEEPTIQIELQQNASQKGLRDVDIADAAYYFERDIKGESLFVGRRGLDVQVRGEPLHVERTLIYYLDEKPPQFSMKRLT"}},
  "note": "Residue numbers refer to the chain shown, from its start.",
  "data": [
    {"binder": "B1", "values": [
      {"measurement": "Kd", "setting": "Rhesus macaque Trop2", "value": "< 1", "unit": "pM"},
      {"measurement": "Kd", "setting": "Human Trop2", "value": 22.6, "unit": "nM"},
      {"measurement": "binding result", "setting": "Mouse Trop2", "value": "no binding"},
      {"measurement": "binding result", "setting": "Rat Trop2", "value": "no binding"}
    ]}
  ]
}
